Results reported in FireProtDB (doi:10.1021/bi002812d).
Several values for one entry are separate records, joined by “and”; a condition that tells them apart may be missing. Equal entries are not always repeated.

B1: Cyclin-dependent kinases regulatory subunit, P08463 (parent)
chain: MSKSGVPRLLTASERERLEPFIDQIHYSPRYADDEYEYRHVMLPKAMLKAIPTDYFNPETGTLRILQEEEWRGLGITQSLGWEMYEVHVPEPHILLFKREKDYQMKFSQQRGG

Variants of: B1
Details: Schizosaccharomyces pombe (strain 972 / ATCC 24843), pH 7.1, 25 °C, GdnHCl, Fluorescence, Tris-HCl, NaCl, reversible: yes, structure 1SCE, whole UniProt chain shown

Variant	ddG of mutation (higher = less stable) (transition: 2)	denaturant m value (transition: 2)	denaturant midpoint (higher = more stable) (transition: 2)	unfolding free energy (transition: 2)	denaturant m value (transition: 2+2)	denaturant midpoint (higher = more stable) (transition: 2+2)	unfolding free energy (transition: 2+2)	denaturant m value (transition: 3)	denaturant midpoint (higher = more stable) (transition: 3)
P92V	0.18 kcal/mol and 0.08 kcal/mol	3.85 kcal/mol/M and 3.55 kcal/mol/M	1.86 M and 2.05 M	7.16 kcal/mol and 7.28 kcal/mol					
P90V	0.63 kcal/mol and 0.62 kcal/mol	3.42 kcal/mol/M and 3.55 kcal/mol/M	1.96 M and 1.9 M	6.71 kcal/mol and 6.74 kcal/mol					
P90V P92V		3.42 kcal/mol/M and 3.31 kcal/mol/M	2.04 M and 1.67 M	6.97 kcal/mol and 5.52 kcal/mol	1.88 kcal/mol/M	4.14 M	7.8 kcal/mol	1.7 kcal/mol/M and 3.39 kcal/mol/M	0.74 M and 2.08 M
